Residue numbers refer to the chain shown, from its start.
B1: MS-115 (antibody)
VH: not shown
VL: DIVLTQSPLSLSVTPGESASISCKSSHSLIHGDRNNYLAWYVQKPGRSPQLLIYLASSRASGVPDRFSGSGSGKDFTLKISRVEAEDVGTYYCMQGRESPWTFGQGTKVDIKRTVAAPSVFIFPPSDEQLKSGTASVVCLLNNFYPREAKVQWKVDNALQSGNSQESVTEQDSKDSTYSLSSTLTLSKADYEKHKVYACEVTHQGLSSPVTKSFNRGEC
B2: MS-118 (antibody)
VH: not shown
VL: B1 VL with S18P
B3: MS-117 (antibody)
VH: not shown
VL: B1 VL with I2F, S18P
B4: MS-116 (antibody)
VH: not shown
VL: B1 VL with L9H, S18P

How the values were obtained:
Test in all cases: cell-based or functional assay
[1] = target: HIV-1 pseudovirus Ce1176_A3 (envelope glycoprotein) (HIV-1)
[2] = target: HIV-1 pseudovirus X1193_c1 (envelope glycoprotein) (HIV-1)
[3] = target: HIV-1 pseudovirus 263-8 (envelope glycoprotein) (HIV-1)
[4] = target: HIV-1 pseudovirus SC05.8C11.2344 (envelope glycoprotein) (HIV-1)
[5] = target: HIV-1 pseudovirus 6952.v1.c20 (envelope glycoprotein) (HIV-1)
[6] = target: HIV-1 pseudovirus AC10.0.29 (envelope glycoprotein) (HIV-1)

Binder | neutralization IC50 [1] | neutralization IC80 [1] | neutralization IC50 [2] | neutralization IC80 [2] | neutralization IC50 [3] | neutralization IC80 [3] | neutralization IC50 [4] | neutralization IC80 [4] | neutralization IC50 [5] | neutralization IC80 [5] | neutralization IC50 [6] | neutralization IC80 [6]
B1 | 0.18 µg/mL | 6.3 µg/mL | 0.08 µg/mL | 0.274 µg/mL | 0.013 µg/mL | 0.037 µg/mL | 0.436 µg/mL | 1.51 µg/mL | 0.303 µg/mL | 4.7 µg/mL | 0.049 µg/mL | 0.249 µg/mL
B2 | 0.26 µg/mL | 8.12 µg/mL | 0.085 µg/mL | 0.287 µg/mL | 0.011 µg/mL | 0.039 µg/mL | 0.449 µg/mL | 1.54 µg/mL | 0.392 µg/mL | 12.2 µg/mL | 0.056 µg/mL | 0.273 µg/mL
B3 | 0.113 µg/mL | 2.17 µg/mL | 0.064 µg/mL | 0.226 µg/mL | 0.01 µg/mL | 0.029 µg/mL | 0.432 µg/mL | 1.48 µg/mL | 0.208 µg/mL | 3.84 µg/mL | 0.051 µg/mL | 0.252 µg/mL
B4 | 0.145 µg/mL | 3.12 µg/mL | 0.064 µg/mL | 0.222 µg/mL | 0.011 µg/mL | 0.042 µg/mL | 0.456 µg/mL | 1.62 µg/mL | 0.341 µg/mL | 7.51 µg/mL | 0.052 µg/mL | 0.258 µg/mL

Reference: patent publication US20220025021A1 (BETH ISRAEL DEACONESS MEDICAL CENTER, published 2022)
